Measurements taken from paper PMC3585288, “Interactions of Archaeal Chromatin Proteins Alba1 and Alba2 with Nucleic Acids” (PLoS ONE, 2013).

B1: Alba1 protein from Aeropyrum pernix (APE1832.1) (natural protein, UniProt Q9YAW1 1-94, looked up)
chain: MSIEPQKPNTILVGRKPTINYVMAALKLLNEEGAPEVVIKARGRNICNAVDTVEMLKNLFIKNLVIKKVNIYSESLDSEGKKKVSAIEIVVAKG
notes: Alba1 (Ape10b1), Aeropyrum pernix, locus APE1832.1; 94 amino-acid residues (10,336 Da); His-tag is removable by thrombin; also called Ape10b1; APA1
B2: SPRspecAP (dsDNA)
DNA 1: CCCCCCCGTGAAAGCCTAGACAGCGAGGCCCCCCC
DNA 2: GGGGGGGCCTCGCTGTCTAGGCTTTCACGGGGGGG
B3: Alba2 protein from Aeropyrum pernix (APE1823) (natural protein)
chain: MACEGAPEVRIGRKPVMNYVLAILTTLMEQGTNQVVVKARGRNINRAVDAVEIVRKRFAKNIEIKDIKIDSQEIEVQTPEGQTRTRRVSSIEICLEKAGESA
notes: Alba2 (Ape10b2), Aeropyrum pernix, locus APE1823; 102 amino-acid residues (11,380 Da); His-tag is removable by thrombin; Co-expression with untagged Alba1 may leave Alba1 in the Alba2 preparation (my surmise); also called Ape10b2; APA2

Legend:
[1] = target: the molecule itself; assay: native gel or EMSA; native protein PAGE, 20% acrylamide homogeneous gel, PhastSystem, acidic buffer agarose strips, proteins migrating towards the negative electrode; equinatoxin II (19.82 kDa) as size reference
[2] = target: T1, Alba1 (Ape10b1);Alba2 (Ape10b2) (Aeropyrum pernix;Aeropyrum pernix, UniProt Q9YAW1;Q9YAX2 1-94;1-102, |); assay: SPR; 6.0 uM equimolar complex; biphasic; ITC: 50 mM NaH2PO4, pH 7.0, 25 C; SPR: 50 mM NaH2PO4, 150 mM NaCl, 0.005% P20, pH 7.0, 25 C; UV melting: 50 mM NaH2PO4, pH 7.0; EMSA: 0.8% agarose, 1 h at room; conditions: protein: recombinant;recombinant; tags: His-tag (pQE-30UA); copies: 1;1; label: 5'-biotin on one strand (S1); blunt
T1 sequence 1: B1 chain
T1 sequence 2: B3 chain

Alba1 (Ape10b1) = target: T2, Alba1 (Ape10b1) (Aeropyrum pernix, UniProt Q9YAW1 1-94); assay: SPR; 6.0 uM protein; saturable, fast association; ITC: 50 mM NaH2PO4, pH 7.0, 25 C; SPR: 50 mM NaH2PO4, 150 mM NaCl, 0.005% P20, pH 7.0, 25 C; UV melting: 50 mM NaH2PO4, pH 7.0; EMSA: 0.8% agarose, 1 h at room; conditions: protein: recombinant; tags: His-tag (pQE-30UA); chain copies: 2; label: 5'-biotin on one strand (S1); blunt
T2 sequence: B1 chain

Alba2 (Ape10b2) = target: T3, Alba2 (Ape10b2) (Aeropyrum pernix, UniProt Q9YAX2 1-102); assay: SPR; 6.0 uM protein; slower association and dissociation; ITC: 50 mM NaH2PO4, pH 7.0, 25 C; SPR: 50 mM NaH2PO4, 150 mM NaCl, 0.005% P20, pH 7.0, 25 C; UV melting: 50 mM NaH2PO4, pH 7.0; EMSA: 0.8% agarose, 1 h at room; conditions: protein: recombinant; tags: His-tag (pETDuet-1); chain copies: 2; label: 5'-biotin on one strand (S1); blunt
T3 sequence: B3 chain

Row | Binder | stoichiometry N [1] | binding result [2] | binding result (Alba1 (Ape10b1)) | binding result (Alba2 (Ape10b2))
1 | B1 | 2 | – | – | –
2 | B2 | – | binds | binds | binds
3 | B3 | 2 | – | – | –
